B1: BAR/IMD domain-containing adapter protein 2 (Homo sapiens), Q9UQB8 (parent)
chain: MSLSRSEEMHRLTENVYKTIMEQFNPSLRNFIAMGKNYEKALAGVTYAAKGYFDALVKMGELASESQGSKELGDVLFQMAEVHRQIQNQLEEMLKSFHNELLTQLEQKVELDSRYLSAALKKYQTEQRSKGDALDKCQAELKKLRKKSQGSKNPQKYSDKELQYIDAISNKQGELENYVSDGYKTALTEERRRFCFLVEKQCAVAKNSAAYHSKGKELLAQKLPLWQQACADPSKIPERAVQLMQQVASNGATLPSALSASKSNLVISDPIPGAKPLPVPPELAPFVGRMSAQESTPIMNGVTGPDGEDYSPWADRKAAQPKSLSPPQSQSKLSDSYSNTLPVRKSVTPKNSYATTENKTLPRSSSMAAGLERNGRMRVKAIFSHAAGDNSTLLSFKEGDLITLLVPEARDGWHYGESEKTKMRGWFPFSYTRVLDSDGSDRLHMSLQQGKSSSTGNLLDKDDLAIPPPDYGAASRAFPAQTASGFKQRPYSVAVPAFSQGLDDYGARSMSRNPFAHVQLKPTVTNDRCDLSAQGPEGREHGDGSARTLAGR

Variants of: B1
Details: with rac1_human RAC1, P63000

Variant | effect of a mutation on the interaction
MSLSRSEEMHRLTENVYKTIMEEFNPSLRNFIAMGKNYEKALAGVTYAAKGYFDALVKMGELASESQGSKELGDVLFQMAEVHRQIQNQLEEMLKSFHNELLTQLEQKVELDSRYLSAALKKYQTEQRSKGDALDKCQAELKKLRKKSQGSKNPQKYSDKELQYIDAISNKQGELENYVSDGYKTALTEERRRFCFLVEKQCAVAKNSAAYHSKGKELLAQKLPLWQQACADPSKIPERAVQLMQQVASNGATLPSALSASKSNLVISDPIPGAKPLPVPPELAPFVGRMSAQESTPIMNGVTGPDGEDYSPWADRKAAQPKSLSPPQSQSKLSDSYSNTLPVRKSVTPKNSYATTENKTLPRSSSMAAGLERNGRMRVKAIFSHAAGDNSTLLSFKEGDLITLLVPEARDGWHYGESEKTKMRGWFPFSYTRVLDSDGSDRLHMSLQQGKSSSTGNLLDKDDLAIPPPDYGAASRAFPAQTASGFKQRPYSVAVPAFSQGLDDYGARSMSRNPFAHVQLKPTVTNDRCDLSAQGPEGREHGDGSARTLAGR [Q23E] | decreasing interaction strength
MSLSRSEEMHRLTENVYKTIMEQFNPSLRNFIAMGKNYEKALAGVTYAAKGYFDALVKMGELASESQGSKELGDVLFQMAEVHRQIQNQLEEMLKSFHNELLTQLEQKVELDSRYLSAALKKYQTEQRSKGDALDKCQAELKELRKESQGSKNPQKYSDKELQYIDAISNKQGELENYVSDGYKTALTEERRRFCFLVEKQCAVAKNSAAYHSKGKELLAQKLPLWQQACADPSKIPERAVQLMQQVASNGATLPSALSASKSNLVISDPIPGAKPLPVPPELAPFVGRMSAQESTPIMNGVTGPDGEDYSPWADRKAAQPKSLSPPQSQSKLSDSYSNTLPVRKSVTPKNSYATTENKTLPRSSSMAAGLERNGRMRVKAIFSHAAGDNSTLLSFKEGDLITLLVPEARDGWHYGESEKTKMRGWFPFSYTRVLDSDGSDRLHMSLQQGKSSSTGNLLDKDDLAIPPPDYGAASRAFPAQTASGFKQRPYSVAVPAFSQGLDDYGARSMSRNPFAHVQLKPTVTNDRCDLSAQGPEGREHGDGSARTLAGR [K143E;K147E] | decreasing interaction strength
MSLSRSEEMHRLTENVYKTIMEQFNPSLRNFIAMGKNYEKALAGVTYAAKGYFDALVKMGELASESQGSKELGDVLFQMAEVHRQIQNQLEEMLKSFHNELLTQLEQKVELDSRYLSAALKKYQTEQRSKGDALDKCQAELAALAAASQGSKNPQKYSDKELQYIDAISNKQGELENYVSDGYKTALTEERRRFCFLVEKQCAVAKNSAAYHSKGKELLAQKLPLWQQACADPSKIPERAVQLMQQVASNGATLPSALSASKSNLVISDPIPGAKPLPVPPELAPFVGRMSAQESTPIMNGVTGPDGEDYSPWADRKAAQPKSLSPPQSQSKLSDSYSNTLPVRKSVTPKNSYATTENKTLPRSSSMAAGLERNGRMRVKAIFSHAAGDNSTLLSFKEGDLITLLVPEARDGWHYGESEKTKMRGWFPFSYTRVLDSDGSDRLHMSLQQGKSSSTGNLLDKDDLAIPPPDYGAASRAFPAQTASGFKQRPYSVAVPAFSQGLDDYGARSMSRNPFAHVQLKPTVTNDRCDLSAQGPEGREHGDGSARTLAGR [K142A;K143A;R145A;K146A;K147A] | decreasing interaction strength
MSLSRSEEMHRLTENVYKTIMEQFNPSLRNFIAMGKNYEKALAGVTYAAKGYFDALVKMGELASESQGSKELGDVLFQMAEVHRQIQNQLEEMLKSFHNELLTQLEQKVELDSRYLSAALKKYQTEQRSKGDALDKCQAELKELRKKSQGSKNPQKYSDKELQYIDAISNKQGELENYVSDGYKTALTEERRRFCFLVEKQCAVAKNSAAYHSKGKELLAQKLPLWQQACADPSKIPERAVQLMQQVASNGATLPSALSASKSNLVISDPIPGAKPLPVPPELAPFVGRMSAQESTPIMNGVTGPDGEDYSPWADRKAAQPKSLSPPQSQSKLSDSYSNTLPVRKSVTPKNSYATTENKTLPRSSSMAAGLERNGRMRVKAIFSHAAGDNSTLLSFKEGDLITLLVPEARDGWHYGESEKTKMRGWFPFSYTRVLDSDGSDRLHMSLQQGKSSSTGNLLDKDDLAIPPPDYGAASRAFPAQTASGFKQRPYSVAVPAFSQGLDDYGARSMSRNPFAHVQLKPTVTNDRCDLSAQGPEGREHGDGSARTLAGR [K143E] | decreasing interaction strength
MSLSRSEEMHELTENVYKTIMEEFNPSLRNFIAMGKNYEKALAGVTYAAKGYFDALVKMGELASESQGSKELGDVLFQMAEVHRQIQNQLEEMLKSFHNELLTQLEQKVELDSRYLSAALKKYQTEQRSKGDALDKCQAELKKLRKKSQGSKNPQKYSDKELQYIDAISNKQGELENYVSDGYKTALTEERRRFCFLVEKQCAVAKNSAAYHSKGKELLAQKLPLWQQACADPSKIPERAVQLMQQVASNGATLPSALSASKSNLVISDPIPGAKPLPVPPELAPFVGRMSAQESTPIMNGVTGPDGEDYSPWADRKAAQPKSLSPPQSQSKLSDSYSNTLPVRKSVTPKNSYATTENKTLPRSSSMAAGLERNGRMRVKAIFSHAAGDNSTLLSFKEGDLITLLVPEARDGWHYGESEKTKMRGWFPFSYTRVLDSDGSDRLHMSLQQGKSSSTGNLLDKDDLAIPPPDYGAASRAFPAQTASGFKQRPYSVAVPAFSQGLDDYGARSMSRNPFAHVQLKPTVTNDRCDLSAQGPEGREHGDGSARTLAGR [R11E;Q23E] | decreasing interaction strength

Reference: IntAct's records for PubMed 17003044
